Here are results for 4 molecules from patent US20180306795A1 (CIZZLE BIOTECHNOLOGY, published 2018).

Experiment [1] has as its target T1, human fibrinogen alpha chain (carrier protein in human plasma) (human, UniProt P02671-2 20-629).
T1 construct: mature; This is the carrier protein of normal plasma that runs at about 65-70 kDa in reducing SDS-PAGE; also called Uniprot P02671
T1 sequence (looked up): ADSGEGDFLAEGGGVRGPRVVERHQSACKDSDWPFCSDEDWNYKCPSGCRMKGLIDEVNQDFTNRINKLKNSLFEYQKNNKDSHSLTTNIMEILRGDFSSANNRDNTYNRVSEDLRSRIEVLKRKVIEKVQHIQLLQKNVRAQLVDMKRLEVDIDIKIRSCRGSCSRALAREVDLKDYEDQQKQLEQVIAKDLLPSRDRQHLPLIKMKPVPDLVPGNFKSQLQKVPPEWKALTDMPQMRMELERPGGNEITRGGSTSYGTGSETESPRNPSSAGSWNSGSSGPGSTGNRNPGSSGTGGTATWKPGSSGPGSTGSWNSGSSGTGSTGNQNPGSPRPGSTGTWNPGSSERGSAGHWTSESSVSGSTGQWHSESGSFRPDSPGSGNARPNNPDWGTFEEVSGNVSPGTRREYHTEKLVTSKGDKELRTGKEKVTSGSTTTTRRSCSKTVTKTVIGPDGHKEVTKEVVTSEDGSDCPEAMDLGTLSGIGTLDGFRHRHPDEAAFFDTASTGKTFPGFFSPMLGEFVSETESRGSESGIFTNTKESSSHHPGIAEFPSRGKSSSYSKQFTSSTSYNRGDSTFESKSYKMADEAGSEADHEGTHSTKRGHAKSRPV
Kind of experiment: peptide incubated with normal human plasma, western blot (FIG. 10C). Here is the method:
(§1) Band identity was verified by ponceau S stain followed by Western blot with anti-CIZ1b antibody 043 of a parallel gel (right). B) Gel slices were soaked in 2% SDS-PAGE loading buffer (with 200 mM βME) and separated through a denaturing gel to recover the 043-reactive species at 70 kDa. Note that sample loaded as a gel slice is slightly retardation compared to markers which are loaded in solution. […] C) Western blot of normal human plasma (non-cancer, N) showing reconstitution of CIZ1b epitope via complex formation between a carrier protein in plasma and synthetic CIZ1b peptides of the indicated lengths, but not equivalent CIZ1a peptide (Table 2). Note that free peptides migrate in reducing SDS-PAGE with a relative mobility 3 times expected (˜21 kDa instead of 7.6 kDa for b66, ˜5 kDa instead of 1.6 for b13). None are recognized by CIZ1b antibodies in western blot unless complexed with carrier protein. For CIZ1b66 peptide a new reactive species is created at ˜80 kDa, while CIZ1b13 peptide increases antigenicity at the same mobility as the endogenous epitope in lung cancer plasmas (C, lane 1). D) Western blot of non-reducing SDS-PAGE gel showing purified fibrinogen (6 nmols) in all lanes (upper), with and without prior incubation with 100 pmols of the indicated peptides (Table 2), probed with CIZ1b antibodies as indicated. […]
For orientation: In western blotting, separated proteins are transferred to a membrane and probed.

The target of experiment [2] is T1, human fibrinogen alpha chain (carrier …). Kind of experiment: 50 nmols peptide mixed with 0.5 ul non-cancer plasma, western blot. Here is the method: FIG. 3—Ciz1 b-variant ˜65-70 kDa species is a Ciz1 b-variant peptide stably bound to a carrier protein, which may augment antigenicity of Ciz1 b-variant peptide. a) Western blot illustrating cancer-selective epitope recognised by anti-Ciz1 b-variant antibody 2B, as described previously (Higgins et al; as above). b) Reconstitution of a Ciz1 b-variant epitope from synthetic b-variant peptide (50 nmols of […] DFLV—SEQ ID NO: 12) mixed with 0.5 ul of non-cancer plasma. Free peptide migrates with mobility indicative of a MW 3-4× greater than predicted (˜30 kDa instead of 7.6 kDa), indicated by blue arrow. When incubated in plasma mobility decreases, antigenicity increases, and a new species is created at ˜80 kDa, indicated by red arrow. c) Similar results were generated with a separate anti-Ciz1 b-variant monoclonal antibody. d) For reference, a duplicate blot is probed with a monoclonal antibody that is selective for the exon 14a version of the peptide ([…]—SEQ ID NO: 13), showing detection of the peptide in lanes 1 and 3. Key: Lane 1, WT peptide only. Lane 2, B-var peptide only. Lane 3, WT peptide+normal plasma. Lane 4, B-var peptide+normal plasma. Lane 5, normal plasma only. […] F) Western blot showing titration of short peptide ([…]—SEQ ID NO: 2) into cancer patient plasma, detected with anti-Ciz1 b-variant monoclonal antibody (upper) or anti-Ciz1 b-variant polyclonal antibody 043 (lower).

For experiment [3] the target is unchanged. Kind of experiment: peptide incubated with normal human plasma, reducing SDS-PAGE, western blot with 2B and 043. As for the experimental part: as §1
Experiment [4] shares this target. Kind of experiment: peptide combined with plasma, western blot.

No end group written: not given here.

B1: Long CIZ1b peptide (b66) (peptide)
peptide: EIAGQDEDHFITVDAVGCFEGDEEEEEDDEDEEEIEVRSRDISREEWKGSETYSPNTAYGVDFLVP
notes: also called CIZ1b66
Consider B1, for which the binding result in experiment [1] is recorded as “binds”.

B2: Long Ciz1 b-variant peptide (SEQ ID NO: 12) (peptide)
peptide: EIAGQDEDHFITVDAVGCFEGDEEEEEDDEDEEEIEVRSRDISREEWKGSETYSPNTAYGVDFLV
notes: also called synthetic b-variant peptide; B-var peptide
With B2, the binding result in experiment [2] was “binds”.

B3: Short CIZ1b peptide (b13) (peptide)
peptide: CDEEEIEVRSRDIS-NH2
notes: also called CIZ1b13
On to B3, for which the binding result in experiment [3] is listed as “binds”.

B4: Short Ciz1 b-variant peptide DEEEIEVRSRDIS (peptide)
peptide: DEEEIEVRSRDIS
notes: also called short b-variant peptide; short peptide
Consider B4, for which the binding result in experiment [4] is recorded as “binds”.
